Results reported in patent US20080234216A1.

Molecular target: Truncated TGF-β type III receptor encoded by partial rat cDNA clone R3-OF (rat) (UniProt P26342)
Assay: total 125I-TGF-β binding per glass slide of COS cells transfected with the cDNA clone (calculated, data not shown)

Sequence of Truncated TGF-β type III receptor encoded by partial rat cDNA clone R3-OF (rat) (P26342 24-818 L164V limits assumed): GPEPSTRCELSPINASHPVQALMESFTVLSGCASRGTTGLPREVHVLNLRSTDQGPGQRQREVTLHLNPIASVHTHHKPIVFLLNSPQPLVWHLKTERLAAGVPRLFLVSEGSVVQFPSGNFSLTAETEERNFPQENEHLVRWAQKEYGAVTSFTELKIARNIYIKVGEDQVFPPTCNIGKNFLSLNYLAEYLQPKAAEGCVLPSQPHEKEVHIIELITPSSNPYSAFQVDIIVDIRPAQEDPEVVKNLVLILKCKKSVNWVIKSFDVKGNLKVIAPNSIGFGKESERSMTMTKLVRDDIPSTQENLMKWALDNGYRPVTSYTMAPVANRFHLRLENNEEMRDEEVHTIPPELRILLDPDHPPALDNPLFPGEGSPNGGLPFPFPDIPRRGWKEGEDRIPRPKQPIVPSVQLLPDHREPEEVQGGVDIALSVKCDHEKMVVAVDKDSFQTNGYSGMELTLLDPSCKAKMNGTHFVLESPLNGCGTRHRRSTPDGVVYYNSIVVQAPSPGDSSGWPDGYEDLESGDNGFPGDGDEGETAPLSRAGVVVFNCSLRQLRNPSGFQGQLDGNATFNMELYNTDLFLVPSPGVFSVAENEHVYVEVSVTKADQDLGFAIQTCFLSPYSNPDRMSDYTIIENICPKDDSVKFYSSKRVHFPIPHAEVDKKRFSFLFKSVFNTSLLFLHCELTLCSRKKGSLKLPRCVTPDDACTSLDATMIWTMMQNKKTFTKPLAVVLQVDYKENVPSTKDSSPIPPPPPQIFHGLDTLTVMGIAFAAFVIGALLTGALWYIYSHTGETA
Sequence of Recombinant human TGF-β1 (P01137 279-390 limits assumed): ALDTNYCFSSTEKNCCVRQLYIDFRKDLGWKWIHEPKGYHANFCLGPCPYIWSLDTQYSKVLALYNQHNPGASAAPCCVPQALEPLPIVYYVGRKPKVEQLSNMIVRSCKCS

fold total 125I-TGF-β binding over mock transfectants: 2 fold
Substance: Recombinant human TGF-β1 (from UniProt P01137 279-390) (ligand)
